Reference: the supplement of paper PMC12764529
± gives the half width of the 95% confidence interval.

How the values were obtained:
[1] = folding stability dG unfold from chymotrypsin proteolysis; higher = more stable
In short: (§1)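 Unfolding free energy was derived, per protease or combined, against a sequence-predicted unfolded-state K50 and a shared folded-state K50, starting from K50 inferred by Bayesian fitting of sequencing counts. Digestion with trypsin and chymotrypsin was carried out on designed mini-proteins under 80 residues without cysteine in a PA-tagged cDNA display construct. Only designs with AlphaFold2 dimer inter-PAE above 15 were kept.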

[2] = folding stability dG unfold from trypsin proteolysis; higher = more stable
In short: as §1

[3] = folding stability dG unfold (combined trypsin and chymotrypsin); higher = more stable
In short: as §1

Sequence: SAGGMTITFPEGITITFSPDNTATVTINFPGNPLTLTLNATTLEEVIETAKKAAEEFRKPPPKLVLKVSAGG [r13_896_JUSTAS]
- folding stability dG unfold [1]: 1.72 ± 0.1 kcal/mol
- folding stability dG unfold [2]: 1.13 ± 0.035 kcal/mol
- folding stability dG unfold [3]: 1.6 ± 0.096 kcal/mol

Sequence: SAGGMTITIDPTPDGVRIKIYDDGKPREIPVAPEVLELIQQNPTLEEIIRELFPPGHPIEKIEIEPWSAGGS [r16_567_TrROS]
- folding stability dG unfold [1]: 1.03 ± 0.17 kcal/mol
- folding stability dG unfold [2]: 1.57 ± 0.071 kcal/mol
- folding stability dG unfold [3]: 1.15 ± 0.22 kcal/mol

Sequence: SAGGMTITVTKKTKPEDVEKLVEEIKEELEKKGYNVKKIEVTYKVVKDPNSSNEIVELTLTIEVEKPSAGGS [r8_475_JUSTAS]
- folding stability dG unfold [1]: 5.03 ± 0.21 kcal/mol
- folding stability dG unfold [2]: 4.55 ± 0.89 kcal/mol
- folding stability dG unfold [3]: 5.28 ± 0.31 kcal/mol

Sequence: SAGGMTITVTVPEVPPDRTVTVEVYKPGEKLGSYSGTLNQPKNVTYTFTVPPATITINYSDGKTYPIPLSAG [r5_646_JUSTAS]
- folding stability dG unfold [1]: 3.4 ± 0.038 kcal/mol
- folding stability dG unfold [2]: 2.22 ± 0.19 kcal/mol
- folding stability dG unfold [3]: 3.01 ± 0.25 kcal/mol

Sequence: SAGGMTIVEVEYTAYDLNSNKSVVVKAYKDPSTGKMTITSSDGVEGEFDPVTKTISLPRGSKSVTLGSAGGS [r16_743_JUSTAS]
- folding stability dG unfold [1]: 0.623 ± 0.11 kcal/mol
- folding stability dG unfold [2]: 0.266 ± 0.074 kcal/mol
- folding stability dG unfold [3]: 0.521 ± 0.081 kcal/mol

Sequence: SAGGMTKIEVEYYPEKITVTVTTDNPSENPLDIIKKKTGFKIEGGEVLYPSPNVVVVKLKVDPKDLKKSAGG [r13_498_JUSTAS]
- folding stability dG unfold [1]: 1.07 ± 0.11 kcal/mol
- folding stability dG unfold [2]: 0.443 ± 0.11 kcal/mol
- folding stability dG unfold [3]: 0.799 ± 0.27 kcal/mol

Sequence: SAGGMTKTESEVFFEPDGSSSSAKVTITVDDGPLTANVTISPDSVTTTINYPDGSTVTTTTSVSPAASAGGS [r16_108_JUSTAS]
- folding stability dG unfold [1]: 1.48 ± 0.052 kcal/mol
- folding stability dG unfold [2]: 0.942 ± 0.081 kcal/mol
- folding stability dG unfold [3]: 1.27 ± 0.13 kcal/mol

Sequence: SAGGMTLEERAEALAAERGWTVTSIELVEEKPGEVKFRVTFRLPDGSLETVEITVKRPPPVPPDNLLSAGGS [r8_309_JUSTAS]
- folding stability dG unfold [1]: 3.726 ± 0.025 kcal/mol
- folding stability dG unfold [2]: 3.73 ± 0.11 kcal/mol
- folding stability dG unfold [3]: 3.74 ± 0.057 kcal/mol

Sequence: SAGGMTLEFELEAEPLEEVEKRVRELLRELGFPESVEITIEPKKPDDGSVIYPVKVTLNDPALEARLSAGGS [r8_85_JUSTAS]
- folding stability dG unfold [1]: 1.22 ± 0.036 kcal/mol
- folding stability dG unfold [2]: 1.04 ± 0.038 kcal/mol
- folding stability dG unfold [3]: 1.11 ± 0.097 kcal/mol

Sequence: SAGGMTLEITITFPGPEMLEEAKKIIDELGIELVNPTPNSLTVKAKGPEEVAKIKEEAKKLGFTVTGSAGGS [r16_88_JUSTAS]
- folding stability dG unfold [1]: 3.19 ± 0.086 kcal/mol
- folding stability dG unfold [2]: 2.92 ± 0.21 kcal/mol
- folding stability dG unfold [3]: 3.13 ± 0.14 kcal/mol

Sequence: SAGGMTLLKVRIYIPSEPKPIEVELFTDGDPEKAEEAVRELVEELGYPDAKVEVELLEVDPSDPRFLGSAGG [r13_682_TrMRF]
- folding stability dG unfold [1]: 3.984 ± 0.024 kcal/mol
- folding stability dG unfold [2]: 2.38 ± 0.041 kcal/mol
- folding stability dG unfold [3]: 3.57 ± 0.051 kcal/mol

Sequence: SAGGMTLRITTADGRVIEIEADSLEDALAALRTLLGLKPGDVLTVEVVVEVDGEKKTFTLTIVLPPEPSAGG [r13_145_TrROS_Hall]
- folding stability dG unfold [1]: 6.08 ± 0.089 kcal/mol
- folding stability dG unfold [2]: 4.95 ± 0.14 kcal/mol
- folding stability dG unfold [3]: > 6 kcal/mol

Sequence: SAGGMTLVIKVTNKDGSTLTITFDAETNTITITFPDGTTRTITVPADTTIEELIAALPPDAKVEILPASAGG [r13_696_TrROS_Hall]
- folding stability dG unfold [1]: 4.75 ± 0.11 kcal/mol
- folding stability dG unfold [2]: 3.42 ± 0.073 kcal/mol
- folding stability dG unfold [3]: 4.55 ± 0.1 kcal/mol

Sequence: SAGGMTRKLTFLGDIDKPVGLDGDIEIRPNPETGGFTIRVPPGVRIEAEVERLTDPPLALVTVTFLESAGGS [r16_122_TrMRF]
- folding stability dG unfold [1]: 1.03 ± 0.074 kcal/mol
- folding stability dG unfold [2]: -0.118 ± 0.082 kcal/mol
- folding stability dG unfold [3]: 0.715 ± 0.054 kcal/mol

Sequence: SAGGMTTFELYDPVNNKKYTLTYDPATNTLTLYNPENGEILETKPVPNLQSVEAPIVPGGIEVGVVINSAGG [r13_720_JUSTAS]
- folding stability dG unfold [1]: 2.75 ± 0.062 kcal/mol
- folding stability dG unfold [2]: 2.11 ± 0.07 kcal/mol
- folding stability dG unfold [3]: 2.5 ± 0.085 kcal/mol

Sequence: SAGGMTTTTLTLEEFLEKYPEEVVKERTEKPLGPGANLTIVTLTAPGTTITVTSNPAQPDIWTVTTVTSAGG [r13_942_JUSTAS]
- folding stability dG unfold [1]: 1.11 ± 0.049 kcal/mol
- folding stability dG unfold [2]: 0.75 ± 0.018 kcal/mol
- folding stability dG unfold [3]: 0.965 ± 0.051 kcal/mol

Sequence: SAGGMTTTVELELEDPVNLGVPVRVEATVTYEKDPNGNPVAKAEITTTYPDGKEEKTTIPVSELKGLGSAGG [r13_787_JUSTAS]
- folding stability dG unfold [1]: -0.603 ± 0.13 kcal/mol
- folding stability dG unfold [2]: 0.294 ± 0.059 kcal/mol
- folding stability dG unfold [3]: -0.00381 ± 0.17 kcal/mol

Sequence: SAGGMTVETTTVTLAAGTTYTVTTPSDSTVEVVDTETGVVRRFDVPASTDFSVTLPADRTYDITVVRRSAGG [r19_78_JUSTAS]
- folding stability dG unfold [1]: 1.35 ± 0.022 kcal/mol
- folding stability dG unfold [2]: 0.7932 ± 0.0053 kcal/mol
- folding stability dG unfold [3]: 1.15 ± 0.032 kcal/mol

Sequence: SAGGMTVKITIEVEEPGKTAEELAEELARELEKAGFKVEVVSVEVEEVDGRLIVTIEVKVDSEEALKASAGG [r13_979_TrROS_Hall]
- folding stability dG unfold [1]: 2.55 ± 0.077 kcal/mol
- folding stability dG unfold [2]: 2.36 ± 0.055 kcal/mol
- folding stability dG unfold [3]: 2.52 ± 0.058 kcal/mol

Sequence: SAGGMTVPIFVPVDSPEQVEEILEELATPDVKEIVPATLPPLPPPGDKMVVPINITIFPGTGKAVIDASAGG [r13_174_TrMRF]
- folding stability dG unfold [1]: 0.991 ± 0.014 kcal/mol
- folding stability dG unfold [2]: -1.08 ± 0.12 kcal/mol
- folding stability dG unfold [3]: 0.492 ± 0.086 kcal/mol

Sequence: SAGGMTVTIPYKGSPELAERVVEAIQEAFPEVRVEEVVVEPGDPTNITITVRFDNDVPASAIAEVLSSAGGS [r16_180_JUSTAS]
- folding stability dG unfold [1]: 1.55 ± 0.035 kcal/mol
- folding stability dG unfold [2]: 2.24 ± 0.041 kcal/mol
- folding stability dG unfold [3]: 1.85 ± 0.071 kcal/mol

Sequence: SAGGMTVTVKVTEIKKIGDKYEITLKNPDGTPKTVTIDDPEVVKKITPDSEVTVTVNPDGSYTITLESAGGS [r16_2_JUSTAS]
- folding stability dG unfold [1]: 3.48 ± 0.23 kcal/mol
- folding stability dG unfold [2]: 3.74 ± 0.28 kcal/mol
- folding stability dG unfold [3]: 3.84 ± 0.29 kcal/mol

Sequence: SAGGMVEELDAKDADKIIVGADPDEEVFVLVEVYDDGELLEVVELEPGEEIEIPKDYKVKIVTVPKDLSAGG [r13_978_TrMRF]
- folding stability dG unfold [1]: -0.0827 ± 0.63 kcal/mol
- folding stability dG unfold [2]: 0.119 ± 0.081 kcal/mol
- folding stability dG unfold [3]: -0.293 ± 0.52 kcal/mol

Sequence: SAGGMVEEVKELAKELGFDVEIELTSVYGEKGYVPYKVTFPNGKTYYITFKGSPDEMKKKLRDLLEKSAGGS [r16_153_TrMRF]
- folding stability dG unfold [1]: 2.99 ± 0.034 kcal/mol
- folding stability dG unfold [2]: 2.2 ± 0.058 kcal/mol
- folding stability dG unfold [3]: 2.82 ± 0.065 kcal/mol

Sequence: SAGGMVIIIPSPDNTVLIIEIEGDKAKIIIINPEDGSAVIIELPIEPNGDGSFILKITSIEVLEDADISAGG [r13_556_TrMRF]
- folding stability dG unfold [1]: 3.34 ± 0.13 kcal/mol
- folding stability dG unfold [2]: 2.97 ± 0.2 kcal/mol
- folding stability dG unfold [3]: 3.27 ± 0.26 kcal/mol

Sequence: SAGGMVIKVTDAEEAIERVIELVKSLGPEAVIKEITVTNTGTVVKVEPGKKGTVSPDSTITVNIEKGSAGGS [r16_267_JUSTAS]
- folding stability dG unfold [1]: 0.938 ± 0.075 kcal/mol
- folding stability dG unfold [2]: -0.0389 ± 0.066 kcal/mol
- folding stability dG unfold [3]: 0.662 ± 0.14 kcal/mol

Sequence: SAGGMVIPPEATLTGSTTSWVTTSDGRKLLVTTPVYRFPGNTTVVVSTVTDPTSAASTVTVSTEPALSAGGS [r16_370_JUSTAS]
- folding stability dG unfold [1]: 0.107 ± 0.12 kcal/mol
- folding stability dG unfold [2]: 0.498 ± 0.069 kcal/mol
- folding stability dG unfold [3]: 0.374 ± 0.085 kcal/mol

Sequence: SAGGMVKLTITITTENETTTYPRVVPEEELEEVKKEAEELAKKLGADPKTVTVSKVERLKEPGGVPVSAGGS [r16_650_JUSTAS]
- folding stability dG unfold [1]: 0.901 ± 0.033 kcal/mol
- folding stability dG unfold [2]: 0.694 ± 0.029 kcal/mol
- folding stability dG unfold [3]: 0.856 ± 0.061 kcal/mol

Sequence: SAGGMVLFRIRFRTGPDGIVRLDPELLEQAEGADIDEDDPRVALILAEPEFLEKLSPELLEEAEILPSAGGS [r16_328_TrMRF]
- folding stability dG unfold [1]: 0.606 ± 0.12 kcal/mol
- folding stability dG unfold [2]: 0.607 ± 0.1 kcal/mol
- folding stability dG unfold [3]: 0.684 ± 0.047 kcal/mol

Sequence: SAGGMVLKPVKLNGNENLKTTADGAEVEYTSDGKGNVTITVRYEPNLTVEALVNGSTVTLVKTEEGYLSAGG [r13_92_JUSTAS]
- folding stability dG unfold [1]: 0.937 ± 0.11 kcal/mol
- folding stability dG unfold [2]: 0.843 ± 0.09 kcal/mol
- folding stability dG unfold [3]: 0.867 ± 0.15 kcal/mol

Sequence: SAGGMVLVERDGDRLVLLIPFPADEPPTPEEVEAEARAILRELGPDVRIRSVHRLPDGGYLVEAEVDSAGGS [r8_103_TrMRF]
- folding stability dG unfold [1]: 3.69 ± 0.038 kcal/mol
- folding stability dG unfold [2]: 3.17 ± 0.065 kcal/mol
- folding stability dG unfold [3]: 3.56 ± 0.041 kcal/mol
